# Experiments:
# [1] = target: extracellular domain of human LEPR with an N-terminal myc-myc tag, GPI-anchored on HEK293 cells (human) (UniProt P48357); assay: FACS, secondary alone, HEK293/hLEPR-GPI cells, no added Leptin
# [2] = target: extracellular domain of human LEPR with an N-terminal myc-myc tag, GPI-anchored on HEK293 cells (human) (UniProt P48357); assay: FACS, secondary alone, HEK293/hLEPR-GPI cells, 1 µM Leptin
# extracellular domain of human LEPR with an N-terminal myc-myc tag, GPI-anchored on HEK293 cells (human), sequence (P48357 22-839 limits assumed): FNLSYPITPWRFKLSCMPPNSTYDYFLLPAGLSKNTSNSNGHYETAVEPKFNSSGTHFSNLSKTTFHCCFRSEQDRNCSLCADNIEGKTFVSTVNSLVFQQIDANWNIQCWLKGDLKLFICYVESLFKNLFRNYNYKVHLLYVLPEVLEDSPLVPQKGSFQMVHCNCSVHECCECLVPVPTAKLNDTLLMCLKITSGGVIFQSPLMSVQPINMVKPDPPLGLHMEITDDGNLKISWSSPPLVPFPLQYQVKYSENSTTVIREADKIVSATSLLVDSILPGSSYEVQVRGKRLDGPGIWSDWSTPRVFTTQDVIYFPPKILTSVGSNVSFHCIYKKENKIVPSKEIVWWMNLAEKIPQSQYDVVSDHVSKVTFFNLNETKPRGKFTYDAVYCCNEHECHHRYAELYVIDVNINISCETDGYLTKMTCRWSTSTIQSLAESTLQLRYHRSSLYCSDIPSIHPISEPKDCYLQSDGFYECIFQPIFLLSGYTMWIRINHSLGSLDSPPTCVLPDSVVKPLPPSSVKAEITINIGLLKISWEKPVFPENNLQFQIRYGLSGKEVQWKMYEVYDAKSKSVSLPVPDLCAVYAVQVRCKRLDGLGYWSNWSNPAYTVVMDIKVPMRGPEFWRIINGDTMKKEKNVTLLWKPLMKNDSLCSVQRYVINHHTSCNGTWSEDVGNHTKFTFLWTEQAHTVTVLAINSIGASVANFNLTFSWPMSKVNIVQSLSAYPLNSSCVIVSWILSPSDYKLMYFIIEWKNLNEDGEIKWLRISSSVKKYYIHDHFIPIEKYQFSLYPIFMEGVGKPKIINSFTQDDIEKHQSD
Substance,Binding Ratio (normalized to unstained) [1] [fold],Binding Ratio (normalized to unstained) [2] [fold]
Anti-human IgG secondary antibody alone,3,3
Anti-mouse IgG secondary antibody alone,2,2

# — patent US20200123264A1
